Results on six sequences are retold here after patent publication US20240376455.

The test system of series [1] is T1, LPG10138 (Bacillus megaterium).
T1 sequence: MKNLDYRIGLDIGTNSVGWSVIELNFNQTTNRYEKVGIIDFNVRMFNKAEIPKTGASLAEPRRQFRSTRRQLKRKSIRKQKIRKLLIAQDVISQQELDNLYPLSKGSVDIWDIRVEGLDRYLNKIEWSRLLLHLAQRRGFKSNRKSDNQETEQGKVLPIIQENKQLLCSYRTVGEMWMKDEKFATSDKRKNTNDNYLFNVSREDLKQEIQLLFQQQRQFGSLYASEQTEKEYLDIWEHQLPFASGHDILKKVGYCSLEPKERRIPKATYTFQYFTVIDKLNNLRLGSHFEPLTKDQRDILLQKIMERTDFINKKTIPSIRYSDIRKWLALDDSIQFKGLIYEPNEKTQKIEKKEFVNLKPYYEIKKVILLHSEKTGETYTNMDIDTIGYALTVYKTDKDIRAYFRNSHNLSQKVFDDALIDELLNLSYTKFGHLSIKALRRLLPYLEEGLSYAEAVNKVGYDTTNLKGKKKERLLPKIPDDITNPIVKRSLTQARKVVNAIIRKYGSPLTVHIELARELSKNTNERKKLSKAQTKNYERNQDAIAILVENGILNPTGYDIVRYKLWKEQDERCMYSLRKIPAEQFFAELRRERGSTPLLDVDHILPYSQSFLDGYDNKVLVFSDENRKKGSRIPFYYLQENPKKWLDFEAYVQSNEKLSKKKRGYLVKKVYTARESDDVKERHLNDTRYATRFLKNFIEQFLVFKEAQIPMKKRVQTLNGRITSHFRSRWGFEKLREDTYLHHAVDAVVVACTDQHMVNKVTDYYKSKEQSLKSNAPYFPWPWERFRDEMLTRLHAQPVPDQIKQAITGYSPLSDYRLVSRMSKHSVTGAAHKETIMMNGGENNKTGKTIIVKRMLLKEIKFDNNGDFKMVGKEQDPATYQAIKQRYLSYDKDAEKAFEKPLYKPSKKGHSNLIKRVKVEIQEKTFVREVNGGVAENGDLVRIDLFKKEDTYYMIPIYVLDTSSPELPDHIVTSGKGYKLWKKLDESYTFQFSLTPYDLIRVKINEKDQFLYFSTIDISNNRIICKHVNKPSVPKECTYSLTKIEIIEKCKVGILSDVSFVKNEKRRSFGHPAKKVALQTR
In words: cleavage_in_vitro.

Series [2] has as its system T2, LPG10146 (Bifidobacterium thermacidophilum).
T2 sequence: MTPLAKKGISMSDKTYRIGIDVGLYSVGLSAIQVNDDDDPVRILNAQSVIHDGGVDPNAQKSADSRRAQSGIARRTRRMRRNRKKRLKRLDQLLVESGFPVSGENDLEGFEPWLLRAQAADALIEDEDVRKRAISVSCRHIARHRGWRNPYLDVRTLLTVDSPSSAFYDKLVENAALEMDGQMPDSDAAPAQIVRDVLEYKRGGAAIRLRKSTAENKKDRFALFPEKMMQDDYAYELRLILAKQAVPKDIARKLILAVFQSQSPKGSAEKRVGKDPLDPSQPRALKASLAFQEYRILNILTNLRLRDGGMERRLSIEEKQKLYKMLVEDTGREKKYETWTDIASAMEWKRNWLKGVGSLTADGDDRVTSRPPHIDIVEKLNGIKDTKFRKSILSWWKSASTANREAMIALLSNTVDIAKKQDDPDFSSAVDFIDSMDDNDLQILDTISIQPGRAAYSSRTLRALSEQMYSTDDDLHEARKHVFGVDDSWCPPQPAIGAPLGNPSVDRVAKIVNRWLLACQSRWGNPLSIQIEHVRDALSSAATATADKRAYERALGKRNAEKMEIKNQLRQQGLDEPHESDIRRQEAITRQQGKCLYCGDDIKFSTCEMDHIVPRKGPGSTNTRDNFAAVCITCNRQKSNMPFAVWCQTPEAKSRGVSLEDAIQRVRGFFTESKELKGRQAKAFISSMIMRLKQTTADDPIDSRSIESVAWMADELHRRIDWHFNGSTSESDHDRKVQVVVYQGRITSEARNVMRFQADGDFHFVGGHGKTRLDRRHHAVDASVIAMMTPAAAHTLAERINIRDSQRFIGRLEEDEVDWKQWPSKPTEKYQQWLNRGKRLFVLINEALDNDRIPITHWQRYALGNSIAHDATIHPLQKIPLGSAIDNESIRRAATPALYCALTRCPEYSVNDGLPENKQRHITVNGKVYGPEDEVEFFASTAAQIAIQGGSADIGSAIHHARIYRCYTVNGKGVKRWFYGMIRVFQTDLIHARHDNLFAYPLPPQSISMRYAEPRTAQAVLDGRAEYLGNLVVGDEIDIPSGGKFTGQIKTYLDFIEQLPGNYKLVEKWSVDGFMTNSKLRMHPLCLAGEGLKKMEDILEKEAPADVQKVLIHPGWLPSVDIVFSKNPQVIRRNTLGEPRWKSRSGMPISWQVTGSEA
In words: cleavage_in_vitro. Particulars: PAM SEQ ID 79.

In series [1] (PAM SEQ ID 75), “GUCAUAGUCCCAUCAUAUCCAUUGCAAAGGCAAUGGAUAUGAUGUUUCUAUGAUAAGGGCUCUCUAAGAGAGACCUGUGGCGUUGGGGAUCGCCUGCCCGUUUCGACGGGUGUCUCCCCAUUU / GGACAGCAGCTTCCTATATCTCGTACAGGACTTC / GAAGTCCTGTACGAGATATAGGAAGCTGCTGTCC [LPG10138 sgRNA L1 ; Library 1 target AGGACTTC]” gave an activity (% target strand cleaved) of 5.5.

As to “GCUGAGAAUUAGCAUCCUUCAAAGGAAGAAGCUAAUUCUCAGUAAGUACAGCAAUUAAUAGCUGUAUCUGAAUGCUAAGCGGUUAGCCGCAGGGGAGAGCUUCGGCUCUCCCCGUUCUUUU / GATATAGACGTTGTGGCTGTTGTAGTGAGTAACC / GGTTACTCACTACAACAGCCACAACGTCTATATC [LPG10146 sgRNA L2 ; Library 2 target GAGTAACC]”, the activity (% target strand cleaved) in series [2] is 57.7.

In the case of “GCUGAGAAUUAGCAUCCUUCAAAGGAAGAAGCUAAUUCUCAGUAAGUACAGCAAUUAAUAGCUGUAUCUGAAUGCUAAGCGGUUAGCCGCAGGGGAGAGCUUCGGCUCUCCCCGUUCUUUU / GGACAGCAGCTTCCTATATCTCGTACGGATAACC / GGTTATCCGTACGAGATATAGGAAGCTGCTGTCC [LPG10146 sgRNA L1 ; Library 1 target GGATAACC]”, the activity (% target strand cleaved) in series [2] worked out at 0.

“GCUGAGAAUUAGCAUCCUUCAAAGGAAGAAGCUAAUUCUCAGUAAGUACAGCAAUUAAUAGCUGUAUCUGAAUGCUAAGCGGUUAGCCGCAGGGGAGAGCUUCGGCUCUCCCCGUUCUUUU / GATATAGACGTTGTGGCTGTTGTAGTAGGAAACC / GGTTTCCTACTACAACAGCCACAACGTCTATATC [LPG10146 sgRNA L2 ; Library 2 target AGGAAACC]” had an activity (% target strand cleaved) in series [2] of 48.9.

For the sequence “GUCAUAGUCCCAUCAUAUCCAUUGCAAAGGCAAUGGAUAUGAUGUUUCUAUGAUAAGGGCUCUCUAAGAGAGACCUGUGGCGUUGGGGAUCGCCUGCCCGUUUCGACGGGUGUCUCCCCAUUU / GATATAGACGTTGTGGCTGTTGTAGTAGGAATTC / GAATTCCTACTACAACAGCCACAACGTCTATATC [LPG10138 sgRNA L2 ; Library 2 target AGGAATTC]”, the activity (% target strand cleaved) in series [1] (PAM context AGGAATTC) turned out to be 0.

Regarding “GUCAUAGUCCCAUCAUAUCCAUUGCAAAGGCAAUGGAUAUGAUGUUUCUAUGAUAAGGGCUCUCUAAGAGAGACCUGUGGCGUUGGGGAUCGCCUGCCCGUUUCGACGGGUGUCUCCCCAUUU / GATATAGACGTTGTGGCTGTTGTAGTAGGACTTC / GAAGTCCTACTACAACAGCCACAACGTCTATATC [LPG10138 sgRNA L2 ; Library 2 target AGGACTTC]”, the activity (% target strand cleaved) in series [1] (PAM SEQ ID 75) was found to be 18.
